# IntAct's records for PubMed 19494114
# B1: Receptor-type tyrosine-protein phosphatase eta (Homo sapiens), Q12913 (parent)
# chain: MKPAAREARLPPRSPGLRWALPLLLLLLRLGQILCAGGTPSPIPDPSVATVATGENGITQISSTAESFHKQNGTGTPQVETNTSEDGESSGANDSLRTPEQGSNGTDGASQKTPSSTGPSPVFDIKAVSISPTNVILTWKSNDTAASEYKYVVKHKMENEKTITVVHQPWCNITGLRPATSYVFSITPGIGNETWGDPRVIKVITEPIPVSDLRVALTGVRKAALSWSNGNGTASCRVLLESIGSHEELTQDSRLQVNISGLKPGVQYNINPYLLQSNKTKGDPLGTEGGLDASNTERSRAGSPTAPVHDESLVGPVDPSSGQQSRDTEVLLVGLEPGTRYNATVYSQAANGTEGQPQAIEFRTNAIQVFDVTAVNISATSLTLIWKVSDNESSSNYTYKIHVAGETDSSNLNVSEPRAVIPGLRSSTFYNITVCPVLGDIEGTPGFLQVHTPPVPVSDFRVTVVSTTEIGLAWSSHDAESFQMHITQEGAGNSRVEITTNQSIIIGGLFPGTKYCFEIVPKGPNGTEGASRTVCNRTVPSAVFDIHVVYVTTTEMWLDWKSPDGASEYVYHLVIESKHGSNHTSTYDKAITLQGLIPGTLYNITISPEVDHVWGDPNSTAQYTRPSNVSNIDVSTNTTAATLSWQNFDDASPTYSYCLLIEKAGNSSNATQVVTDIGITDATVTELIPGSSYTVEIFAQVGDGIKSLEPGRKSFCTDPASMASFDCEVVPKEPALVLKWTCPPGANAGFELEVSSGAWNNATHLESCSSENGTEYRTEVTYLNFSTSYNISITTVSCGKMAAPTRNTCTTGITDPPPPDGSPNITSVSHNSVKVKFSGFEASHGPIKAYAVILTTGEAGHPSADVLKYTYEDFKKGASDTYVTYLIRTEEKGRSQSLSEVLKYEIDVGNESTTLGYYNGKLEPLGSYRACVAGFTNITFHPQNKGLIDGAESYVSFSRYSDAVSLPQDPGVICGAVFGCIFGALVIVTVGGFIFWRKKRKDAKNNEVSFSQIKPKKSKLIRVENFEAYFKKQQADSNCGFAEEYEDLKLVGISQPKYAAELAENRGKNRYNNVLPYDISRVKLSVQTHSTDDYINANYMPGYHSKKDFIATQGPLPNTLKDFWRMVWEKNVYAIIMLTKCVEQGRTKCEEYWPSKQAQDYGDITVAMTSEIVLPEWTIRDFTVKNIQTSESHPLRQFHFTSWPDHGVPDTTDLLINFRYLVRDYMKQSPPESPILVHCSAGVGRTGTFIAIDRLIYQIENENTVDVYGIVYDLRMHRPLMVQTEDQYVFLNQCVLDIVRSQKDSKVDLIYQNTTAMTIYENLAPVTTFGKTNGYIA
# Variants of: B1
# Details: with mk03_human MAPK3, P27361
# Chain of mk03_human MAPK3, P27361 (P27361 whole entry): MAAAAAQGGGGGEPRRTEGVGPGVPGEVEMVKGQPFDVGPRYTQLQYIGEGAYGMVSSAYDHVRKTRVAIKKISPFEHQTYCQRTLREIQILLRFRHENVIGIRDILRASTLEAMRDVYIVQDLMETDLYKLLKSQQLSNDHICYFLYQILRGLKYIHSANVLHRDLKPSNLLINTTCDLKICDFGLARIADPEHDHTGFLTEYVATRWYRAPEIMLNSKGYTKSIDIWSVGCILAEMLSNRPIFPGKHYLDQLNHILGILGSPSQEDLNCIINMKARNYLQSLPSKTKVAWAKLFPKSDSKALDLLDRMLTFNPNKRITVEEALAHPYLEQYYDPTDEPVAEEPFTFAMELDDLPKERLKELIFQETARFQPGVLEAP
row,effect of a mutation on the interaction,Variant
1,decreasing interaction,K1031A
